Laboratory results taken from paper PMC8920335, “A CGA/EGFR/GATA2 positive feedback circuit confers chemoresistance in gastric cancer” (The Journal of Clinical Investigation, 2022).

Biological target: T1, recombinant ECD of EGFR (UniProt P00533 25-645)
T1 construct: Epidermal growth factor receptor, recombinant extracellular domain immobilised for SPR; Source, limits and tags may be told in the Supplemental Methods
Experiment: SPR; BIAcore S200, room temperature; recombinant ECD of EGFR immobilised on a CM5 chip by amine coupling; purified rCGA injected at 30 μL/min for 60 seconds, dissociation 100 seconds; 1:1 Langmuir binding model
Settings: both partners purified

- Kd: 11.8 µM
B1: recombinant human CGA (glycoprotein hormone α polypeptide), 6×His tag removed (natural protein)
chain: not shown
notes: Glycoprotein hormones alpha chain (CGA), human; CGA ORF in a modified pHL-sec vector, secreted protein; engineered enterokinase site at the C-terminus before the 6×His tag; Made in mammalian cells; Residues of the enterokinase site may be left at the C-terminus after digestion; also called rCGA; α-subunit of glycoprotein hormones; not shown: His6, C-terminal, cleaved
